Experimental data as given in paper PMC6698644 (Nucleic Acids Research, 2019).
Changes are numbered by the printed parent chain. Names may count otherwise.

Experiments:
[1] = target: T1, LeuO-His6 (wild type) (Escherichia coli K12, UniProt P10151 1-314); assay: SPR
T1 sequence: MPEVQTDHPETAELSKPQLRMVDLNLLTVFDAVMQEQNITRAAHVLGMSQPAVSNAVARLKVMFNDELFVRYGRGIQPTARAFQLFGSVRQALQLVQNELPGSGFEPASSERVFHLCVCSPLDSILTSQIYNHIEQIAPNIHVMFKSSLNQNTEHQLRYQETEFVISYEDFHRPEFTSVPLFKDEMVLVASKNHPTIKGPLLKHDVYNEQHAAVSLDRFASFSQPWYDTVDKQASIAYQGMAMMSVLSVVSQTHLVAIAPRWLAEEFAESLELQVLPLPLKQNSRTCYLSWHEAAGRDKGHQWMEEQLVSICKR

[2] = target: T2, LeuO-DBD-His6 (Escherichia coli K12, UniProt P10151 1-101); assay: SPR
T2 sequence: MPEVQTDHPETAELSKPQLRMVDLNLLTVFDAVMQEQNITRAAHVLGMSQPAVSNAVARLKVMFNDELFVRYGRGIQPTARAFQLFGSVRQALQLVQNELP

[3] = target: T3, LeuO-S120D-His6 (Escherichia coli K12, UniProt P10151 1-314, S120D); assay: SPR
T3 sequence: T1 sequence with S120D

[4] = target: T3, LeuO-S120D-His6; assay: SPR; remark: listed apart in the source
[5] = target: T1, LeuO-His6 (wild type); assay: SPR; remark: listed apart in the source
[6] = target: T3, LeuO-S120D-His6; assay: gel filtration
[7] = target: T1, LeuO-His6 (wild type); assay: gel filtration
[8] = target: the molecule itself; assay: SEC
[9] = target: the molecule itself; assay: crystal structure

B1: SPR fragment C, scrambled (60 bp) (dsDNA)
DNA 1: GGGGGGTAAATTACATAATGCGATTAAAATTTATTTTCAAAAGTTTAATTTAACATTGAATTTATGGGGG
DNA 2: CCCCCATAAATTCAATGTTAAATTAAACTTTTGAAAATAAATTTTAATCGCATTATGTAATTTACCCCCC
B1: no binding [1]; no binding [2]; no binding [3].

B2: SPR fragment B, cas core-site (25 bp) (dsDNA)
DNA 1: GGGGGTTTATATTCACAGTATGAATATTTTGGGGG
DNA 2: CCCCCAAAATATTCATACTGTGAATATAAACCCCC
Work on B2 yielded a Kd [4] of 0.6 nM and a Kd [5] of 0.9 nM.

B3: SPR fragment A, cas LeuO site II (60 bp) (dsDNA)
DNA 1: GGGGGTTTATATTCACAGTATGAATATTTTATGTAATAAAATTCATGGTAATTATTATAACTAAAGGGGG
DNA 2: CCCCCTTTAGTTATAATAATTACCATGAATTTTATTACATAAAATATTCATACTGTGAATATAAACCCCC
For B3, the Kd [4] was 0.2 nM and the Kd [5] was 0.7 nM.

B4: gel filtration fragment, cas LeuO site II (60 bp) (dsDNA)
DNA 1: TTTATATTCACAGTATGAATATTTTATGTAATAAAATTCATGGTAATTATTATAACTAAA
DNA 2: TTTAGTTATAATAATTACCATGAATTTTATTACATAAAATATTCATACTGTGAATATAAA
B4: binds [6]; binds [7].

B5: LeuO, C-terminally histidine-tagged (LeuO_(His6)) (natural protein, Escherichia coli, UniProt P10151 1-314, looked up)
chain: T1 sequence
In the case of B5, the “stoichiometry N” value [8] is reported as 4.

B6: LeuO-S120D, C-terminally histidine-tagged (LeuO-S120D_(His6)) (natural protein, Escherichia coli, UniProt P10151 1-314, looked up)
chain: T1 sequence with S120D
For B6, the “stoichiometry N” value [8] was 4.

B7: LeuO-S120D effector-binding domain, C-terminally histidine-tagged (LeuO-S120D-EBD_(His6)) (domain or fragment, Escherichia coli)
chain: SSERVFHLCVCDPLDSILTSQIYNHIEQIAPNIHVMFKSSLNQNTEHQLRYQETEFVISYEDFHRPEFTSVPLFKDEMVLVASKNHPTIKGPLLKHDVYNEQHAAVSLDRFASFSQPWYDTVDKQASIAYQGMAMMSVLSVVSQTHLVAIAPRWLAEEFAESLELQVLPLPLKQNSRTCYLSWHEAAGRDKGHQWMEEQLVSICKR
B7: binds [9].
